Source: patent CN117603358A

Target: S蛋白, SARS-CoV-2原型毒株 (SARS-CoV-2 (prototype)) (UniProt P0DTC2)
Assay: cell-based or functional assay

Substance: LY-CoV1404 (antibody)
- 假病毒中和活性 IC50: 1.19 ng/mL
